Measurements taken from patent US20220332804A1 (CSL INNOVATION, published 2022).
Numbering of substitutions follows the chain as printed.

Legend:
Test in all cases: SPR, antibody captured, C2 as analyte;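 also: biacore SPR at 37 °C, anti-C2 mAbs captured via goat anti-human IgG on CM5 chips, double-referenced sensorgrams fit to a 1:1 kinetic or steady-state model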
human C2 D282A = biological target: T1, human C2 D282A (human, UniProt P06681 21-752)
T1 sequence: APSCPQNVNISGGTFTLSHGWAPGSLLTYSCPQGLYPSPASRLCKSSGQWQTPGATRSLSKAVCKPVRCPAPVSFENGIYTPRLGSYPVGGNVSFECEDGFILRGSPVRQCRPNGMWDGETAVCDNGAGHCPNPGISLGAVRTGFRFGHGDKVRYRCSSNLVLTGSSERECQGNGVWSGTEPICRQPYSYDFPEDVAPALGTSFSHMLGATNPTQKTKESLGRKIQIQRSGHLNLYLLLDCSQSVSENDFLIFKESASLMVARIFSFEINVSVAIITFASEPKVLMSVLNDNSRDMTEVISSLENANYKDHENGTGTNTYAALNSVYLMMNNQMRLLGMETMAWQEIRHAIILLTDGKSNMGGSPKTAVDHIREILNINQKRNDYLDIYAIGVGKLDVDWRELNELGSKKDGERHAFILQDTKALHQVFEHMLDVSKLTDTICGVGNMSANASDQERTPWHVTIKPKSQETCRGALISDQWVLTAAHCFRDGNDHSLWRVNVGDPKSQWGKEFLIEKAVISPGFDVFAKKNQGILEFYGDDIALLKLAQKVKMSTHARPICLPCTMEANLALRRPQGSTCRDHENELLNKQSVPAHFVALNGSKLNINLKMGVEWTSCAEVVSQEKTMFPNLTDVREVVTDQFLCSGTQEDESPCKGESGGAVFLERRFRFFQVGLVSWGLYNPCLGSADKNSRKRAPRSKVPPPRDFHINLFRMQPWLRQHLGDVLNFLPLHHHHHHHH
Description: (§1) Surface plasmon resonance (SPR, Biacore) was used for all binding affinity analyses. In brief, goat anti-human IgG was directly immobilised onto the carboxymethyl dextran surface of CM5 sensorchips to approximately 12,000 RU using standard NHS/EDC chemistry at pH 5. The immobilised antibody surface was pre-conditioned with ten injections of polyclonal human IgG (Privigen 60 s) prepared at 1 μg/mL. Ligands (anti-C2 mAbs) were captured at the beginning of each cycle as described below. An adjacent spot or flow cell in which only Polyclonal IgG was capture was used as a reference surface. The goat anti-human IgG Fc antibody surface was regenerate in 100 mM H3PO4, injected for 45 seconds at the end of each cycle. Experiments were performed at 37° C. and the flow rate of each experiment was kept constant at 30 μL/min.
(§2) Sensogram data was double-referenced against a reference anti-IgG surface (i.e. minus anti-C2 mAb) and blank buffer injections obtained within each experiment. The binding data was fit to 1:1 (kinetic or steady-state) model using local Rmax and null refraction index (RI=0) when appropriate. Buffers and solutions were filtered (0.22 μm) prior to use.

human C2 G432A = biological target: T2, human C2 G432A (human, UniProt P06681 21-752)
T2 sequence: T1 sequence with A262D, G412A
Description: as §1, §2

human C2 V455A = biological target: T3, human C2 V455A (human, UniProt P06681 21-752)
T3 sequence: T1 sequence with A262D, V435A
Description: as §1, §2

human C2 P486A = biological target: T4, human C2 P486A (human, UniProt P06681 21-752)
T4 sequence: T1 sequence with A262D, P466A
Description: as §1, §2

B1: RF16-226 (antibody, human IgG4 S228P, lambda)
heavy: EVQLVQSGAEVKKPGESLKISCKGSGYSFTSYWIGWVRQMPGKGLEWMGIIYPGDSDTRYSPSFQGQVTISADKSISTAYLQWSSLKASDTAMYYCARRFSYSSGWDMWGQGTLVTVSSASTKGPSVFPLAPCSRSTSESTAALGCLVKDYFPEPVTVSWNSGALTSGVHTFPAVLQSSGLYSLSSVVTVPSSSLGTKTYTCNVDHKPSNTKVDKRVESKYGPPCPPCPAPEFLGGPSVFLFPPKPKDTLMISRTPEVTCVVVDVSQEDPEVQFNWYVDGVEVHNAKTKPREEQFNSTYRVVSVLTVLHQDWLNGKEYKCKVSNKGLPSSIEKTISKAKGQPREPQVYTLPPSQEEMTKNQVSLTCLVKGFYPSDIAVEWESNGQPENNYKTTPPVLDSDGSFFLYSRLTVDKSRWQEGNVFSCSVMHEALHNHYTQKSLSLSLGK
light: SYELTQPPSVSVSPGQTARITCSGDALTSKYVAWYQQKSGLAPLLVIYEDTRRPSGIPAKFSGSSSGSVATLTISGAHGDDEADYYCYSTDASGHQRVFGGGTKLTVLSQPKAAPSVTLFPPSSEELQANKATLVCLISDFYPGAVTVAWKADGSPVKAGVETTKPSKQSNNKYAASSYLSLTPEQWKSHRSYSCQVTHEGSTVEKTVAPTECS
notes: pH-dependent anti-C2 antibody from a phage display library; also called WT
Question: Which results are given for B1?
Answer: Kd (human C2 D282A): 8.9 nM; Kd (human C2 G432A): 6.6 nM; Kd (human C2 V455A): 9 nM; Kd (human C2 P486A): 11.1 nM
